Patent US20220315645A1

Molecular target: HBsAg on HBV virions (HBV from HepDE19 cell supernatant) (Hepatitis B virus)
Assay: cell-based or functional assay

libivirumab (antibody) gave an IC50, in vitro HBV neutralization on HepG2-NTCP cells (ELISA read-out) of 0.035 µg/mL and an IC50, in vitro HBV neutralization on HepG2-NTCP cells (HBcAg immunofluorescence read-out) of 0.128 µg/mL.
